Measured values reported in patent publication US20210188989A1 (SYSTIMMUNE, published 2021).
Changes are numbered by the printed parent chain. Values belong to the binder of their own block, whether it stands above or below them.

Target: T1, recombinant human 4-1BB extracellular domain protein (human, UniProt Q07011 24-186)
T1 construct: extracellular domain; Analyte in the Octet assay; also called CD137; TNFRSF9
Experiment: Octet, binding off-rate kdis; the sheet names no species of 41BB, paragraph 86: 'binding to human and recombinant 4-1BB by octet assay'

koff: 0.00284 s⁻¹
B3: 419D9 VHv3VLv3 (antibody, human IgG1, kappa, V domains shown)
VH: EVQLLESGGGLVQPGGSLRLSCTASGFSFSSRHYMCWVRQAPGKGLEWIACIYTGSSGTPHYASSAKGRFTISQDNSKNTVTLQMNSLRAEDTAVYYCAREGNLWGQGTLVTVSS
VL: DIQMTQSPSTLSASVGDRVTITCQSSQSVYSNWLSWYQQKPGKAPKRLIYSASTLASGVPSRFSGSGSGTEFTLTISSLQPDDFATYYCAGGYNTVTDTFAFGGGTKVEIKR
notes: one of the humanized antibodies; also called 419D9 humanized

koff: 0.00183 s⁻¹
B5: 470C6 VHv3VLv3 (antibody, human IgG1, kappa, V domains shown)
VH: QSLVESGGGLVQPGGSLRLSCAASGFSFTSSYYMCWVRQAPGKGLEWIACIYTGSSGSTYYANSAKGRFTISRDNSKNTLYLQMNSLRAEDTAVYYCARDSSSYYMFNLWGQGTLVTVSS
VL: ALVMTQSPSTLSASVGDRVTINCQASEDIDNYLAWYQQKPGKAPKLLIFYASDLASGVPSRFSGSGSGTEFTLTISSLQPDDFATYYCQGGYYTSSTDTRGAFGGGTKVEIKR
notes: one of the humanized antibodies; also called 470C6 humanized

koff: 0.00277 s⁻¹
B7: 418E4 VHv1VLv1 (antibody, human IgG1, kappa, V domains shown)
VH: EVQLVESGGGLVQPGGSLRLSCAASGFSLSSYYMSWVRQAPGKGLEWIGSIYASGSAYYASSAKGRFTISRDNSKNTLYLQMNSLRAEDTAVYYCARDPINNDIWGQGTLVTVSS
VL: DIQMTQSPSTLSASVGDRVTITCQASQSIATNLNWYQQKPGKAPKLLIYYTSSLASGVPSRFSGSGSGTEFTLTISSLQPDDFATYYCLGVWNYWGDDGTAFGGGTKVEIKR
notes: one of the humanized antibodies; also called 418E4 humanized

koff: 0.00245 s⁻¹
B8: 418H5 VHv2VLv1 (antibody, human IgG1, kappa, V domains shown)
VH: EVQLVESGGGLVQPGGSLRLSCTASGIDLSAYHMSWVRQAPGKGLEYIGMIGSSGTIHYANSAKGRFTISKDNTKNTVDLQMNSLRAEDTAVYYCARDSYNSDYAFNLWGQGTLVTVSS
VL: DIQMTQSPSSVSASVGDRVTITCQSSPSVYKNNQLAWYQQKPGKAPKLLIYLASTLASGVPSRFSGSGSGTDFTLTISSLQPEDFATYYCAGGYSSSSDTAFGGGTKVEIKR
notes: one of the humanized antibodies; also called 418H5 humanized

koff: 0.00166 s⁻¹
B10: 416G1 VHv1VLv1 (antibody, human IgG1, kappa, V domains shown)
VH: EVQLVESGGGLVQPGGSLRLSCAASGFTINSYHMIWVRQAPGKGLEYIGFINDGGFTYYASSAKGRFTISRDNSKNTLYLQMNSLRAEDTAVYYCARGVDGTSYPDLWGQGTLVTVSS
VL: DVVMTQSPSSVSASVGDRVTITCQASQSIGSDLAWYQQKPGKAPKLLIYRASTLASGVPSRFSGSGSGTDFTLTISSLQPEDFATYYCQSIYYGSDDVIYHTFGGGTKVEIKR
notes: one of the humanized antibodies; also called 416G1 humanized

Second part, the binder before the results:

B1: 416F8 VHv3VLv1 (antibody, human IgG1, kappa, V domains shown)
VH: QSLVESGGGLVQPGGSLRLSCAASGFSLSNYYMNWVRQAPGKGLEYIGIISSSGSAYYASSAKGRFTISRDNSKNTLYLQMNSLRAEDTAVYYCARGDYGMDLWGQGTLVTVSS
VL: DIQMTQSPSSLSASVGDRVTITCQSSQTVYNNNLLSWYQQKPGKVPKLLIYYASTLAFGVPSRFSGSGSGTDFTLTISSLQPEDVATYYCQGGYSGWIYVFGGGTKVEIKR
notes: one of the humanized antibodies; also called 416F8 humanized
koff: 0.00645 s⁻¹

B2: 413F3 VHv1VLv1 (antibody, human IgG1, kappa, V domains shown)
VH: EVQLVESGGGLVQPGGSLRLSCAASGIDFSSNYMCWVRQAPGKGLEWIACIYGDSSDNSYSASSAKGRFTISRDNSKNTLYLQMNSLRAEDTAVYYCARSGYSYLGYFNLWGQGTLVTVSS
VL: DIQMTQSPSSLSASVGDRVTITCQASQSIYSNLAWYQQKPGKVPKLLIYSTSTLASGVPSRFSGSGSGTDFTLTISSLQPEDVATYYCQNYYGSSTDSYGNPFGGGTKVEIKR
notes: one of the humanized antibodies; also called 413F3 humanized
koff: 0.00224 s⁻¹

B4: 420H5 VHv3VLv3 (antibody, human IgG1, kappa, V domains shown)
VH: B5 VH with T29S, S31N, Y33W, M34I, T53V, S58D, N63S
VL: B5 VL with N31T, T97A
notes: one of the humanized antibodies; also called 420H5 humanized
koff: 0.00178 s⁻¹

B6: 418E10 VHv1VLv1 (antibody, human IgG1, kappa, V domains shown)
VH: B7 VH with S31T, A53D, S56A, S61T, D103A
VL: B7 VL with A30G, T31S, T51V, S53T
notes: one of the humanized antibodies; also called 418E10 humanized
koff: 0.000958 s⁻¹

B9: 411H11 VHv1VLv1 (antibody, human IgG1, kappa, V domains shown)
VH: B10 VH with N30S, Y32H, E46Q, G55D, F56Y, A60T, S61N, D106G
VL: B10 VL with S31A, S90A, S95T
notes: one of the humanized antibodies; also called 411H11 humanized
koff: 0.00179 s⁻¹
